Target: IL-5Rα expressed on cells (TF-1/IL-5Rα cells; human eosinophils) (human) (UniProt Q01344)
Test: cell-based or functional assay

Sequence of IL-5Rα expressed on cells (TF-1/IL-5Rα cells; human eosinophils) (human) (Q01344 21-420): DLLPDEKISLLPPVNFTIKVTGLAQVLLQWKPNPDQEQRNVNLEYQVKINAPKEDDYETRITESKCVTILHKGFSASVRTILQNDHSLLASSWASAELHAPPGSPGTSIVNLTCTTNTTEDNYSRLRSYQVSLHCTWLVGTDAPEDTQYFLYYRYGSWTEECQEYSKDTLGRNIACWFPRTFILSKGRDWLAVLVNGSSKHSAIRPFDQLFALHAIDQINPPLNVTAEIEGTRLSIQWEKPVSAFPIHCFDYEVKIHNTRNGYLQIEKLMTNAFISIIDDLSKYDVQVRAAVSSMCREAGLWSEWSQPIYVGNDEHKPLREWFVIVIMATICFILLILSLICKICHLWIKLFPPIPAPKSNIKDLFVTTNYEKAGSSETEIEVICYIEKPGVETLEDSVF

Work on benralizumab analogue (antibody) yielded an absolute IC50 (Abs IC50), inhibition of IL-5-dependent proliferation of TF-1/IL-5Rα cells of 1.99 nM.

From US20230357415A1
